To fix the notation:
T1: Human T cell receptor on human primary T cells (human, UniProt P01848 1-140; P01850 1-176)
T1 TCR alpha (looked up): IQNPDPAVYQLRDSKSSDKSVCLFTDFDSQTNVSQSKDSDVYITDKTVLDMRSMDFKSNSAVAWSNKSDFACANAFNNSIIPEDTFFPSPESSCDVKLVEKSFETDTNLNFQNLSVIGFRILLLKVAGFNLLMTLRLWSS
T1 TCR beta (looked up): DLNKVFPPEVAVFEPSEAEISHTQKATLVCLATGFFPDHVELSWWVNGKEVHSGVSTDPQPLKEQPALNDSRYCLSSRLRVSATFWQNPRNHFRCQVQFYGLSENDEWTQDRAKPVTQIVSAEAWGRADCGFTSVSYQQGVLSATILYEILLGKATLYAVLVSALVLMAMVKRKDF

T2: Cynomolgus TCR(AEA41865/AEA41866)-zipper protein (cynomolgus monkey)
T2 construct: also called cyTCR-zipper protein; cynoTCR zipper
T2 TCR alpha: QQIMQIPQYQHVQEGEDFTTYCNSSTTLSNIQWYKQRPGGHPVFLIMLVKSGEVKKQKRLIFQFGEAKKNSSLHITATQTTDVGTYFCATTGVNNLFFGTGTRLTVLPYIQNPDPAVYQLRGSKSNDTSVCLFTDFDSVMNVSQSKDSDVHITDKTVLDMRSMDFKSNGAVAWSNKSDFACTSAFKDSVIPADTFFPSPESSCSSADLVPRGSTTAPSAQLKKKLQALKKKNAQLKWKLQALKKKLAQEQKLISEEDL
T2 TCR beta: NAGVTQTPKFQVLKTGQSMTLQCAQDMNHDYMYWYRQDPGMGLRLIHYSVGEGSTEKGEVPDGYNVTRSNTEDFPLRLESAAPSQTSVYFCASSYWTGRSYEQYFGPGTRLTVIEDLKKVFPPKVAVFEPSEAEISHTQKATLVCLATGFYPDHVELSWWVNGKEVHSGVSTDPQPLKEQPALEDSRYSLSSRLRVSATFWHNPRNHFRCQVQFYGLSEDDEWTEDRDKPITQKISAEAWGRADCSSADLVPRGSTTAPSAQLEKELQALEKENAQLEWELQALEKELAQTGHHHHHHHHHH

B1: T017000628 (bispecific antibody)
chain: DVQLVESGGGVVQPGGSLRLSCVASYDVHKINFYGWYRQAPGKEREKVAHISIGDQTDYADSAKGRFTISRDESKNTVYLQMNSLRPEDTALYYCRALSKIWPYDYWGQGTLVTVSSGGGGSGGGGSGGGGSGGGGSGGGGSGGGGSGGGGSEVQLVESGGGLVQAGGSLRLSCAASGITSKINDMGWYRQTPGNYREWVASITATGTTNYRDSVKGRFTISRDNAKSTVYLQMNSLKPEDTTVYYCNTFPPISNFWGQGTLVTVSSA
B2: T017000161 (VHH)
VHH: EVQLVESGGGVVQPGGSLRLSCVASGEVHKINFLGWYRQAPGKEREKVAHISIGDQTDYADSAKGRFTISRDESKNMVYLQMNSLRPEDTALYFCRAFSRIYPYDYWGQGTLVTVSS
B3: T017000190 (VHH)
VHH: B2 VHH with E27D, G35S
B4: T017000179 (VHH)
VHH: B2 VHH with E27D, G35T
B5: T017000200 (VHH)
VHH: B2 VHH with E27D, G35R
B6: T017000177 (VHH)
VHH: B2 VHH with E27S
B7: T017000180 (VHH)
VHH: B2 VHH with G26Q, E27D
B8: T017000174 (VHH)
VHH: B2 VHH with G26W, E27D
B9: T017000185 (VHH)
VHH: B2 VHH with E27D, L34F
B10: T017000176 (VHH)
VHH: B2 VHH with E27D, I31L
B11: T017000170 (VHH)
VHH: B2 VHH with E27D, F33Y
B12: T017000163 (VHH)
VHH: B2 VHH with E27D, K30Q
notes: also called T017000745
B13: T017000188 (VHH)
VHH: B2 VHH with E27A
B14: T017000196 (VHH)
VHH: B2 VHH with E27D, N32F
B15: T017000173 (VHH)
VHH: B2 VHH with E27D, F33V
B16: T017000164 (VHH)
VHH: B2 VHH with E27Y
B17: T017000208 (VHH)
VHH: B2 VHH with G26Y, E27D
B18: T017000166 (VHH)
VHH: B2 VHH with E27D, L34Y
B19: T017000233 (VHH)
VHH: B2 VHH with E27D, T57S
B20: T017000234 (VHH)
VHH: B2 VHH with E27D, H50M
B21: T017000238 (VHH)
VHH: B2 VHH with E27D, Q56E
B22: T017000223 (VHH)
VHH: B2 VHH with E27D, T57A
B23: T017000235 (VHH)
VHH: B2 VHH with E27D, Q56H
B24: T017000231 (VHH)
VHH: B2 VHH with E27D, H50V
B25: T017000241 (VHH)
VHH: B2 VHH with E27D, D58N
B26: T017000232 (VHH)
VHH: B2 VHH with E27D, T57V
B27: T017000609 (VHH)
VHH: B2 VHH with E27D, K30Q, R100K
B28: T017000740 (VHH)
VHH: B2 VHH with G26W, E27D, K30Q, I31L, L34Y, F98M, R100K
B29: T017000757 (VHH)
VHH: B2 VHH with E27A, I31L, R100K, Y102W, Y106W
B30: T017000742 (VHH)
VHH: B2 VHH with E27Y, K30Q, L34Y, F98M, Y102W, Y106W
B31: T017000611 (VHH)
VHH: B2 VHH with E27D, K30Q, L34Y, R100K
B32: T017000750 (VHH)
VHH: B2 VHH with G26Y, E27A, K30Q, L34Y, F98M, Y102W
B33: T017000614 (VHH)
VHH: B2 VHH with E27Y, L34Y, F98L, Y102W
B34: T017000776 (VHH)
VHH: B2 VHH with G26W, E27S, K30Q, L34Y, F98M, R100K, Y102W
B35: T017000754 (VHH)
VHH: B2 VHH with E27Y, K30Q, F98M, R100K, Y102W
B36: T017000593 (VHH)
VHH: B2 VHH with E27A, I31L, L34Y, F98M, R100K, Y102W
B37: T017000612 (VHH)
VHH: B2 VHH with E27D, K30Q, I31L, F98L, R100K
B38: T017000759 (VHH)
VHH: B2 VHH with E27S, L34Y, R100K, Y102W, Y106W
B39: T017000589 (VHH)
VHH: B2 VHH with E27Y, I31L, L34Y, F98M, Y102W, Y106W
B40: T017000610 (VHH)
VHH: B2 VHH with E27D, K30Q, F98L, R100K
B41: T017000766 (VHH)
VHH: B2 VHH with E27Y, L34Y, F98M, R100K
B42: T017000608 (VHH)
VHH: B2 VHH with G26W, E27D, L34Y, R100K, Y102W
B43: T017000774 (VHH)
VHH: B2 VHH with E27D, K30Q, L34Y, F98M, R100K, Y102W
B44: T017000607 (VHH)
VHH: B2 VHH with G26W, E27D, K30Q, L34Y, R100K, Y102W

Substitutions are numbered along the chain they refer to.
Wherever % Lysis, T cell mediated MOLM-13 cell killing, cynomolgus primary T cells, E:T 10:1 is given: test concentration or dose not given here.
Wherever % Lysis, T cell mediated MOLM-13 cell killing, human primary T cells, E:T 10:1 is given: test concentration or dose not given here.

One test deals with T1, Human T cell receptor on human primary …. Briefly: cell-based or functional assay.
As for B1, the “% Lysis, T cell mediated MOLM-13 cell killing, human primary T cells, E:T 10:1” value is 39% and the “EC50 (M), T cell mediated MOLM-13 cell killing, human primary T cells, E:T 10:1” value is 1.6e-10 M.

A further test deals with Cynomolgus T cell receptor on cynomolgus primary T cells (cynomolgus monkey). Briefly: cell-based or functional assay.
Take B1: the “% Lysis, T cell mediated MOLM-13 cell killing, cynomolgus primary T cells, E:T 10:1” value is 40% and the “EC50 (M), T cell mediated MOLM-13 cell killing, cynomolgus primary T cells, E:T 10:1” value came out at 2e-11 M.

The target of a further test is T2, Cynomolgus …. Briefly: SPR ProteOn off-rate screen.
Source text: (§1) Unique ISVD clones, i.e. clones with a unique sequence, were subsequently selected and screened to determine their off-rate. To this purpose, the ISVD containing periplasmic extracts were screened on huTCR-zipper and cyTCR-zipper protein by SPR on a ProteOn XPR36 instrument. The zipper proteins were immobilized on a GLC sensor chip (between 4300 and 5100RU) via amine coupling chemistry, using EDC/sulfo-NHS for activation of the carboxyl groups on the chip surface (running buffer: HBS-EP+, pH7.4). Periplasmic extracts were injected at 1/10 dilution for 2 min (at a flow rate of 45 μL/min) and dissociation was followed for 900 s. A pulse of 100 s of 3 M MgCl2 at 45 μL/min was used for regeneration. […] Processed sensorgrams were fitted with the Langmuir model (1:1 interaction) using ProteOn Manager 3.1.0 (Version 3.1.0.6) software.
B2 yielded an off-rate (koff) of 0.00624 s⁻¹.
In turn, B3 had a koff of 0.0107 s⁻¹.
On the same count and under the same terms, with B4 the figure was 0.00775 s⁻¹.
The same measure, in the same setting: with B5 the figure was 0.058 s⁻¹.
B6 yielded a koff of 0.00325 s⁻¹.
Still for that read-out and setting: with B7 the figure was 0.00998 s⁻¹; with B8, 0.00791 s⁻¹.
The same measure, in the same setting: with B9 the figure was 0.0114 s⁻¹.
Still for that read-out and setting: to B10 belongs 0.00791 s⁻¹; to B11, 0.00806 s⁻¹.
Regarding B12, the koff stood at 0.00642 s⁻¹.
The same measure, in the same setting: with B13 the figure was 0.00389 s⁻¹; with B14, 0.00419 s⁻¹; with B15, 0.00903 s⁻¹.
B16 yielded an off-rate constant (koff) of 0.00412 s⁻¹.
The same measure, in the same setting: to B17 belongs 0.0147 s⁻¹; to B18, 0.00825 s⁻¹.

For a further test, the target named is T2, Cynomolgus …. Briefly: SPR ProteOn off-rate screen. This is another data set of the same source.
Source text: as §1
The molecule B19 came in with a koff of 0.0102 s⁻¹.
B20 displayed a koff of 0.0118 s⁻¹.
Same read-out and setting: to B21 belongs 0.00957 s⁻¹.
Still for that read-out and setting: with B22 the figure was 0.0109 s⁻¹; with B23, 0.011 s⁻¹.
Still for that read-out and setting: with B24 the figure was 0.00867 s⁻¹; with B25, 0.0167 s⁻¹; with B26, 0.00895 s⁻¹.

The target of the next test is T2, Cynomolgus …. Briefly: SPR ProteOn off-rate screen. The source holds these as a separate data set.
Source text: as §1
The molecule B27 displayed an off-rate (koff) of 0.00114 s⁻¹.
The molecule B28 yielded a koff of 0.000391 s⁻¹.
Same read-out and setting: with B29 the figure was 0.000603 s⁻¹.
Molecule B30 showed a dissociation rate constant (koff) of 0.00391 s⁻¹.
Same read-out and setting: to B31 belongs 0.00171 s⁻¹; to B32, 0.00373 s⁻¹; to B33, 0.00116 s⁻¹.
Consider B34, for which the koff came out at 0.000525 s⁻¹.
The same measure, in the same setting: with B35 the figure was 0.000237 s⁻¹.
In turn, B36 had a koff of 0.00019 s⁻¹.
The molecule B37 returned a koff of 0.00105 s⁻¹.
Still for that read-out and setting: to B12 belongs 0.00701 s⁻¹.
On the same count and under the same terms, to B38 belongs 0.00101 s⁻¹.
The same measure, in the same setting: with B39 the figure was 0.00115 s⁻¹.
Molecule B40 yielded an off-rate constant (koff) of 0.000857 s⁻¹.
Still for that read-out and setting: with B41 the figure was 0.000239 s⁻¹.
On to B42, for which the koff was 0.000472 s⁻¹.
Still for that read-out and setting: to B43 belongs 0.000431 s⁻¹.
Molecule B44 had a koff of 0.000316 s⁻¹.

Values taken from patent US20240092919A1 (Ablynx, published 2024).
